Measurements: patent US20070225226A1, “C-REACTIVE PROTEIN APHERESIS” (The American National Red Cross, priority 2006, published 2007)
Read-outs that look alike come from different tables or passages of the source. Non-standard residues stand in square brackets, D forms with d. No end group written: not given here. 2Nal = N[C@@H](Cc1ccc2ccccc2c1)C(=O)O

How the values were obtained:
CRP [1] = biological target: T1, CRP (Homo sapiens, UniProt P02741); conditions: rats undergoing acute myocardial infarction, human CRP injected; reference (24); cited from earlier work
T1 sequence (P02741 19-224): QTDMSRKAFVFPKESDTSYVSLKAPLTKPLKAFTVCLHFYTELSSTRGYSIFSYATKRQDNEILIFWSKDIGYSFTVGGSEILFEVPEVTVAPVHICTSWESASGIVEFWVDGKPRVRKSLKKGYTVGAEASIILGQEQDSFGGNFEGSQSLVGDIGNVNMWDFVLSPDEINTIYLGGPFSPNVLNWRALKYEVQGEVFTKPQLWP

CRP [2] = biological target: T1, CRP; test: Ability of resins to bind endogenous CRP from serum (LDS gel / Western blot of supernatant and eluate); format: binding; design: from tissue; host or cells: serum; conditions: two hours at room temperature, FIG. 1; for CRP detected in the supernatant after incubation with resin: 90 μl resin, 300 μl serum containing endogenous CRP; for binding of endogenous CRP by the resin: serum containing endogenous CRP
Experimental: Several of the sequences identified in Example 2 were synthesized at gram scale to assay their ability to bind CRP. 90 μl of resin of ligands eSFAZZ (SEQ ID NO: 3), hGYIGL (SEQ ID NO: 8), vLRPWK (SEQ ID NO: 4), wZQKNH (SEQ ID NO: 7) and kZPDLH (SEQ ID NO: 6) (Z denotes 2′naphthylananine, small letters denote D amino acids, and capital letters denote L amino acids) were incubated with 300 μl of serum containing endogenous CRP, for two hours at room temperature. The supernatant was collected and the protein bound to the beads was eluted by incubation at 70° C. for ten minutes in 2×LDS sample buffer (Invitrogen). 10 μl of incubation supernatant or resin eluate was loaded per lane in an LDS gel and the proteins transferred to a nitrocellulose membrane. CRP was detected on the membrane using mouse anti-human CRP monoclonal antibody CRP-8 (Cat#C-1688, Lot# 094K4803), C=9.1 mg/ml (Sigma-Aldrich, St. Louis, Mo.) and affinity purified phosphatase labeled goat anti mouse IgG(□) human serum adsorbed (Cat#075-1802, Lot# XE084) (KPL, Gaithersburg, Md., USA).
This was confirmed by the detection of CRP in the eluates from these resins. The opposite is true for the remaining resins. […] It should be noted that all three of these ligands have a positively charged amino acid at the carboxy terminus (K or H) while none of the negative resins have the positively charged residue.

CRP [3] = biological target: T1, CRP; test: Equilibrium capacity for binding CRP spiked into plasma or citrate buffer (unbound CRP measured by ELISA); conditions: 80 μl resin, two hours at room temperature
Experimental: The equilibrium capacity of wZQKNH (SEQ ID NO: 7) for binding CRP was determined with CRP spiked into 200 μl of plasma or citrate buffer. 80 μl of wZQKNH resin was mixed with the spiked materials and allowed to incubate for two hours at room temperature. The supernatant was collected and CRP remaining in the supernatant (unbound fraction) was measured by ELISA. The apparent dissociation constant (the reciprocal of the association constant) for CRP bound from buffer was 12.8×10^−9 M whereas the apparent dissociation constant for CRP bound from plasma was 370×10^−9M, indicating a level of interference in plasma, possibly arising from CRP associating with other plasma proteins which may alter its dissociation constant.

[4] = biological target: Human CRP (C-reactive protein) (human) (UniProt P02741); test: Equilibrium binding of CRP spiked into plasma to 80 ul wZQKNH resin, 2 h at room temperature; unbound CRP measured by ELISA; apparent KD
[5] = biological target: Human CRP (C-reactive protein) (human) (UniProt P02741); test: Equilibrium binding of CRP spiked into citrate buffer to 80 ul wZQKNH resin, 2 h at room temperature; unbound CRP measured by ELISA; apparent KD

| Compound | CRP detected in the supernatant after incubation with resin (CRP [2]) | binding of endogenous CRP by the resin (CRP [2]) | also measured |
| --- | --- | --- | --- |
| C[N+](C)(C)CCOP(=O)([O-])OCCCCCCOP(=O)([O-])OCC[N+](C)(C)C [1,6-bis(phosphocholine)-hexane] |  |  | increase in infarct size and cardiac dysfunction produced by human CRP (CRP [1]): abrogate |
| Lys-Nal-Pro-Asp-Leu-His ([dK][2Nal]PDLH) [kZPDLH, hexamer peptide ligand on Toyopearl resin; Z denotes 2′naphthylalanine] | No CRP was detected | appear to bind endogenous CRP |  |
| Trp-Nal-Gln-Lys-Asn-His ([dW][2Nal]QKNH) [wZQKNH, hexamer peptide ligand on Toyopearl resin; Z denotes 2′naphthylalanine] | No CRP was detected | appear to bind endogenous CRP | Kd (CRP [3]; CRP spiked into citrate buffer, read-out: apparent dissociation constant for CRP bound from buffer): 12.8 nM; Kd (CRP [3]; CRP spiked into plasma, read-out: apparent dissociation constant for CRP bound from plasma): 370 nM |
| VLRPWK [hexamer peptide ligand on Toyopearl resin] | No CRP was detected | appear to bind endogenous CRP |  |
| wZQKNH (SEQ ID NO: 7) (peptide) |  |  | Kd [4]: 370 nM; Kd [5]: 12.8 nM |
